Measured values taken from article PMC2690590, “Functional recombinant MHC class II molecules and high-throughput peptide-binding assays” (Immunome Research, 2009).

Legend:
DR1 (DRA*0101/DRB1*0101) [1] = target: T1, DR1 (DRA*0101/DRB1*0101) (Homo sapiens, UniProt P01903+P01911, A100R/D57E/F55L/F60I/F76Y/I96L/L162R/M171V/P40L/Q125E/R42F/V115G/Y59C); test: Competitive peptide-HLA-DR1 binding assay, radioactive spun column; conditions: competition with 125I labelled (Y)HA306–318, spun column assay
DR1 (DRA*0101/DRB1*0101) [2] = target: T1, DR1 (DRA*0101/DRB1*0101); test: Scintillation proximity assay (SPA), competitive, DR1; assay type: binding; conditions: 30 nM DR1 α and β chain; 2 nM 125I labeled YHA306-318; refolding buffer pH 8; 24 h 18°C; streptavidin SPA beads

B1: Invariant Chain: a recombinant version of the extracellular part of human invariant chain (positions 73–208) (protein)
chain: QQQGRLDKLTVTSQNLQLENLRMKLPKPPKPVSKMRMATPLLMQALPMGALPQGPMQNATKYGNMTEDHVMHLLQNADPLKVYPPLKGSFPENLRHLKNTMETIDWKVFESWMHHWLLFEMSRHSLEQKPTDAPPK
For B1, the “binder to DR1 (in words)” value (DR1 (DRA*0101/DRB1*0101) [1]) was “good binders” and the “binder to DR1 (in words), SPA” value (DR1 (DRA*0101/DRB1*0101) [2]) was “good binders”.
